This passage reports Trimeric HA Binding: RLU results from patent US20150086555A1.

Common to all, as to conditions: remark: other sources report otherwise
The target of experiment [1] is T1, recombinant soluble homotrimeric HA of A/Wisconsin/67/05 (H3N2) (Influenza A virus A/Wisconsin/67/2005(H3N2)). Description: trimeric HA microarray, transfection supernatant set 2.
Experiment [2] concerns the target T2, recombinant soluble homotrimeric HA of A/swine/Ontario/01911-2/99 (H4N6) (Influenza A virus A/Swine/Ontario/01911-2/99 (H4N6)). Described as above.
The target of experiment [3] is recombinant soluble homotrimeric HA of A/Hong Kong/2108/03 (H9N2) (Influenza A virus A/HK/2108/2003(H9N2)). The experiment is described as above.
Experiment [4] has as its target T3, recombinant soluble homotrimeric HA of A/northern shoveler/California/HKWF115/07 (H6) (Influenza A virus A/northern shoveler/California/HKWF115/2007(H6N1)). Described as above.
Experiment [5] has as its target recombinant soluble homotrimeric HA of A/Egypt/3300-NAMRU3/08 (H5N1) (Influenza A virus A/Egypt/3300-NAMRU3/2008(H5N1)). Description: trimeric HA microarray, transfection supernatant set 4.
Experiment [6] deals with recombinant soluble homotrimeric HA of A/chicken/Vietnam/NCVD-016/08 (H5N1) (Influenza A virus A/chicken/Vietnam/NCVD-016/2008(H5N1)). The description is as above.
Experiment [7] deals with T4, recombinant soluble homotrimeric HA of A/duck/Yangzhou/02/05 (H8N4) (Influenza A virus A/duck/Yangzhou/02/2005(H8N4)). The experiment is described as above.
Experiment [8] has as its target recombinant soluble homotrimeric HA of A/Solomon Islands/3/06 (H1N1) (Influenza A virus A/Solomon Islands/3/2006(H1N1)). The experiment is described as above.
Experiment [9] concerns the target T1, recombinant soluble homotrimeric HA of …. The description is as above.
Experiment [10] concerns the target recombinant soluble homotrimeric HA of A/South Carolina/1/18 (H1N1) (Influenza A virus A/South Carolina/1/18 (H1N1)). The experiment is described as above.
Experiment [11] deals with T5, recombinant soluble homotrimeric HA of A/Hong Kong/1073/99 (H9N2) (Influenza A virus A/Hong Kong/1073/99 (H9N2)). The description is as above.
Experiment [12] concerns the target recombinant soluble homotrimeric HA of A/Japan/305/57 (H2N2) (Influenza A virus A/Japan/305/1957(H2N2)). The experiment is described as above.
The target of experiment [13] is recombinant soluble homotrimeric HA of A/Vietnam/1203/04 (H5N1) (Influenza A virus A/VietNam/1203/2004(H5N1)). Described as above.
For experiment [14], the target named is recombinant soluble homotrimeric HA of A/California/4/09 (H1N1) (Influenza A virus A/California/04/2009(H1N1)). The description is as above.
Experiment [15] deals with recombinant soluble homotrimeric HA of A/Netherlands/219/03 (H7N7) (Influenza A virus A/Netherlands/219/03(H7N7)). The experiment is described as above.
Experiment [16] addresses recombinant soluble homotrimeric HA of A/Indonesia/5/05 (H5N1) (Influenza A virus A/Indonesia/5/2005(H5N1)). The experiment is described as above.
In experiment [17] the target is recombinant soluble homotrimeric HA of A/Anhui/1/05 (H5N1) (Influenza A virus A/Anhui/1/2005(H5N1)). The experiment is described as above.
The target of experiment [18] is T3, recombinant soluble homotrimeric HA of …. The description is as above.
For experiment [19], the target named is T5, recombinant soluble homotrimeric HA of …. Description: trimeric HA microarray, transfection supernatant set 2.
The target in experiment [20] is T4, recombinant soluble homotrimeric HA of …. Description: trimeric HA microarray, transfection supernatant set 3.
In experiment [21] the target is T1, recombinant soluble homotrimeric HA of …. The description is as above.
Experiment [22] has as its target T2, recombinant soluble homotrimeric HA of …. Described as above.
For experiment [23] the target is unchanged. Description: trimeric HA microarray, transfection supernatant set 4.
For experiment [24], the target named is T5, recombinant soluble homotrimeric HA of …. Nature of the experiment: trimeric HA microarray, transfection supernatant set 3.
Experiment [25] concerns the target T3, recombinant soluble homotrimeric HA of …. Described as above.

B1: TCN-527 (5086_C06) (antibody, V domains shown)
VH: QVQLQESGPGLVKPSETLSLNCAVSGGSISNYYWSWIRQPPGKGLEWIGYISYNGRPKYNPSLTSRVTISVDTSKDQFSLELRSVTAADTALYYCARETRFGELLSPYDAFEIWGQGTMVTVSS
VL: DIQMTQSPSSLSASVGDRVTMTCRASQNIRSYLNWYQQRPGTAPKLLIYAASTLHSGVPSRFSGGGSGTDFTLTINNLQPEDFASYYCQQSYDNPQTFGQGTKVEIK
For B1, the Trimeric HA Binding: RLU in [1] was 35800 RLU; in experiment [2], 30100 RLU; in [3], 25500 RLU; in [4] it was 19300 RLU.

B2: TCN-535 (5246_P19) (antibody, V domains shown)
VH: QVQLVQSGSEVKKPGTSVKVSCTASGSVFTNYGISWVRQAPGQGLEWMGGIIPLFGAAKYAQKFQGRVTITADESTKTVYMELSRLTSKDTAIYFCAKAPRVYEYYFDQWGQGTPVTVSS
VL: EIVLTQSPGTLSLSPGERATLSCRASQSVSSSQLAWYQQKPGQAPRLIIYGASTRATGIPDRFSGSGSGTDFTLTIGRLEPEDFAVFFCQQYSTSPPTFGQGTKVDFK
With B2, the Trimeric HA Binding: RLU in [5] was 25300 RLU; in experiment [6], 20900 RLU; in experiment [7] it was 428 RLU; in experiment [8], 836 RLU; in experiment [9], 4450 RLU; in experiment [10], 22400 RLU. In addition, the Trimeric HA Binding: RLU in [11] amounted to 21200 RLU; in experiment [12], 21500 RLU; in experiment [13] it was 25200 RLU; in experiment [14] it was 25200 RLU; in experiment [15], 159 RLU; in experiment [16] it was 18200 RLU. Further, the Trimeric HA Binding: RLU in experiment [17] amounted to 24 RLU; in experiment [18], 18100 RLU.

B3: TCN-563 (5237_B21) (antibody, V domains shown)
VH: QVQLAQSGAEVKRPGSSVKVSCTASGGIFRKNAISWVRQAPGQGLEWMGGIIAVFNTANYAQKFQGRVKITADESGNTAYMELSSLRSDDTAVYYCASHPKYFYGSGSYPDFWGQGTLVTVSS
VL: QSALTQPRSVSGSPGQSVTISCTGSSSDVGASNSVSWYQQHPGKAPKLVIYDVTERPSGVPHRFSGSKSGNTASLTVSGLQPEDEADYFCCAYGGKYLVVFGGGTKVTVL
For the molecule B3, the Trimeric HA Binding: RLU in [1] came out at 23700 RLU; in [2], 2250 RLU; in [19], 49200 RLU; in [3], 364 RLU; in experiment [4], 21900 RLU.

B4: TCN-522 (3212_I12) (antibody, V domains shown)
VH: QVQLQQWGAGLLKPSETLSLTCTVSGGSLTDYSWNWIRQPPGKGLEWIGDTLHNGYTNYNPSLRGRVSISIDTSKNQVSLRLTSVTAADTALYYCARGSGGYGGFDYFGKLRTWDFWGQGTLVTVSS
VL: DIQLTQSPSSLSASVGDRVTITCRASQGIRNDLGWYQQKPGNAPKRLIFGASSLQSGVPSRFSGSGSGTEFTLTISSLQPEDFATYYCLQHNSYPYTFGQGTKLEIK
As for B4, the values for the Trimeric HA Binding: RLU in [19], in [3] and in [4] were 11800 RLU, 203 RLU and 54400 RLU, respectively.

B5: TCN-504 (3251_K17) (antibody, V domains shown)
VH: QVQLQESGPGLVKPSETLSLTCAVSGVSISNIDFYWGWIRQPPGKGLEWIGNIYYTGITFYNPSLSSRVAISIDTSKNQFSLTLTSVTAADTAMYYCARHYGDSEAINDAFDIWGQGTMLTVSS
VL: EIVMTQSPATLSVSPGERATLSCRASQSVGNSLAWYQQRPGQAPRLLIYGASTRATGIPPRFSGSGSGTEFTLTISSLQTEDFAVYYCQQYINWRPLSFGGGTKVEIK
For B5, the Trimeric HA Binding: RLU stood at 19600 RLU in experiment [20]; 21400 RLU in experiment [21]; 34500 RLU in experiment [22]; 21600 RLU in [1]; 32500 RLU in experiment [2]; 24800 RLU in [5]. Besides, the Trimeric HA Binding: RLU in experiment [6] worked out at 19200 RLU; in experiment [7], 19900 RLU; in [8] it was 14600 RLU; in [9], 20600 RLU; in experiment [23] it was 21800 RLU; in [10], 21700 RLU. For the same molecule, the Trimeric HA Binding: RLU came out at 19600 RLU in [12]; 25700 RLU in [13]; 549 RLU in experiment [14]; 6710 RLU in experiment [15]; 18200 RLU in experiment [16]; 14100 RLU in experiment [17].

B6: TCN-528 (5087_P17) (antibody, V domains shown)
VH: QVQLVQSGSEVKKPGASVKVSCKASGYTFTNYDINWIRQAPGQGLEWMGWINPNSGTTGSAQRFQGRVTITVDTSITTVYMELSSLRSDDTAIYYCARGRELLRLQHFLTDSQSERRDCFDPWGQGTLVTVSS
VL: DIQMTQSPSSLSASVGDRVTITCRANQDIGIYLNWYQQNPGKVPKLLLHGASSLQGGVPSRFSASGSGTDFTLTIHSLQPEDLATYYCQQSRRLPYTFGQGTRVELK
Turning to B6, the Trimeric HA Binding: RLU came out at 46000 RLU in experiment [1], 49200 RLU in experiment [2], 33600 RLU in [3] and 28400 RLU in experiment [4].

B7: TCN-530 (5248_H10a) (antibody, V domains shown)
VH: QVQLVQSGAEVRKPGSSVKVSCKASGGPFMSYAIGWVRQAPGQGLEWMGGINPVFGRPHYAQKFQGRVTIATDDSTKTSYMELSSLTSEDTGMYYCASRYSRSSPGTFESWGQGTLVTVSS
VL: EIVMTQFPATLSVSPGERVTLSCRASQSVSNNLAWYQQKPGQPPRLLIYDASTRATGVPAKFSGTGSGTEFTLSISSLQSEDFAVYYCQQYHNWPPSYSFGLGTKLEIK
As for B7, the Trimeric HA Binding: RLU turned out to be 227 RLU in experiment [20]; 3050 RLU in experiment [21]; 123 RLU in [22]; 10200 RLU in experiment [24]; 23500 RLU in [25].
